Non-standard residues stand in square brackets, D forms with d. Residues, ends and D or L forms follow the SMILES beside them. dPhe(4-Cl) = N[C@H](Cc1ccc(Cl)cc1)C(=O)O; d2Nal = N[C@H](Cc1ccc2ccccc2c1)C(=O)O; dCit = NC(=O)NCCC[C@@H](N)C(=O)O; d3Pal = N[C@H](Cc1cccnc1)C(=O)O
Experiments:
human kidney tissue = assay: Ex vivo culture of human kidney tissue, qRT-PCR gene expression; type: cell-based
Experimental: Human kidney tissues from 5 adults (4 men, 1 […]) were cultured. All donors underwent partial nephrectomy due to suspected malignant kidney tumors and a pathologist removed tissues outside the malignant area. Kidney specimens were dissected in small pieces 1 mm^3 and cultured for either 3 or 24 hours in a hanging drop ex vivo model.
Gene expression profiling was done by qRT-PCR analyzing levels of calcium transporters SLC12A-1, SLC12A-2, TRPV5 as well as calcium-sensing receptor (CASR). The inventors also measured kidney expression of exon 2-4 and 11 of LHCGR using a primer-sequence previously validated by sequencing of the product from both serum and testis tissue. As calcium transporters are differentially expressed in the different parts of the nephron, all samples were standardized according to the expression of Uromodulin (UMOD), a protein located in the thick ascending limb of the loop of Henle and subsequently to MAP3K7 expressed in the distal convoluted tubules and in addition to being standardized to the housekeeping gene, RPS20. Ethical committee approval: H-17004362. All samples were analyzed with ANOVA with control/baseline as reference value and every p-value presented was adjusted for multiple comparisons with Dunnett's post hoc test.

[1] = tested on: bilateral ovariectomized female C57BL/6JRj mice; assay: Menopausal mouse model: temperature and tissue weights; type: in vivo; settings: for Body weight compared with vehicle: after 10 days treatment
Experimental: Bilateral ovariectomized female C57BL/6JRj mice, 8 weeks of age, were included in the study and administered with IgG2b (control) or 1 of 3 test articles (LH-β ab, LHCGR ab or GnRH antagonist) either at study day 1, or once a day for 9 days. The control/vehicle treatment was a non-specific antibody (IgG2b). The route of administration was through intraperitoneal (i.p.) injection. The study had four groups in total (Table 3); group 1 (female, n=6) was treated i.p. with IgG2b (control) on study day 1 and day 5, group 2 (female, n=3) was treated i.p. with LH-β ab at study day 1, group 3 (female, n=3) was treated i.p. with LHCGR ab at study day 1, group 4 (female, n=3) was treated i.p. with GnRH antagonist once a day (q.d.) for 9 days. Blood for preparation of serum was collected prior to dosing on study day 1 and at termination on study day 10. Core temperature and skin temperature were determined in female mice pre-dose on study day 1, at study day 5 and at termination on study day 10.
Seventeen (17) ovariectomized C57BL/6JRj female mice 8 weeks of age were supplied by Janvier Labs France. The ovaries from the female mice were surgically removed by the supplier. The mice were caged in European IVC cages type IIL. Temperature was 20° C. to 24° C. and the light cycle 12-hour dark and 12-hour light (lights on 06.00). The diet was Altromin 1324, produced by Altromin, Im Seelenkamp 20, 32791 Lage, Germany.
Temperature measurements were done using rectal thermometer (thermometer BIO-TK8851 combined with rectal probe BIO-BRET-3, both from BIOSEB Lab instruments) for core temperature and infrared (153-IRB Infrared Thermometer, BIOSEB Lab instruments) for skin temperature. The core temperature was recorded rectally, and skin temperature was recorded at the tail and the head between the ears at the same time of the day (morning). Immediately after termination, tissues (fat and thyroid mass) were dissected, weighed, placed in Eppendorf tubes and snap frozen by emerging the tube in liquid nitrogen or placed in histology jar and fixed in 4% neutral buffered formalin.

[2] = tested on: bilateral ovariectomized female C57BL/6JRj mice; assay: Calcium excretion and kidney weight in menopause mouse model; type: in vivo; settings: for kidney weight compared with vehicle (IgG2b): female mice without ovaries; for kidney weight compared with vehicle (IgG2b) / calcium excretion: day 10; for calcium excretion: female mouse model
Experimental: (§1) Bilateral ovariectomized female C57BL/6JRj mice, 8 weeks of age, were included in the study and administered with IgG2b (control) or 1 of 3 test articles (LH-β ab, LHCGR ab or GnRH antagonist) either at study day 1, study day 1 and 5 or once a day for 9 days. The route of administration was through intraperitoneal (i.p.) injection. The study included be 6 groups in total (Table 6); group 1 (female, n=6) was treated i.p. with IgG2b (control) on study day 1 and day 5, group 2 (female, n=3) was treated i.p. with LH-β ab at study day 1, group 3 (female, n=1) was treated i.p. with LH-β AB on study day 1 and day 5, Group 4 (female, n=3) was treated i.p. with LHCGR ab at study day 1, group 5 (female, n=1) was treated i.p. with LHCGR ab on study day 1 and day 5, group 6 (female, n=3) was treated i.p. with GnRH antagonist once a day (q.d.) for 9 days. Blood for preparation of serum was collected prior to dosing on study day 1 and at termination on study day 10. Urine and kidneys were collected on day 10.
Seventeen (17) bilateral ovariectomized C57BL/6JRj female mice 8 weeks of age, were supplied by Janvier Labs France. The ovaries from the female mice were surgically removed by the supplier (see also Table 6). Fourteen (14) C57BL/6JRj male mice were also stratified into the different groups except that no male mice were treated with GnRH antagonist, and the male mice were therefore only stratified into groups 1-5 (see also Table 7).

C57BL/6JRj male mice = assay: Calcium excretion and kidney weight in normal male mice; type: in vivo
Experimental: as §1
Seventeen (17) bilateral ovariectomized C57BL/6JRj female mice 8 weeks of age, were supplied by Janvier Labs France. The ovaries from the female mice were surgically removed by the supplier (see also Table 6). […]

Molecule: C[C@]12CC[C@H]3[C@@H](CCC4=CC(=O)CC[C@@]43C)[C@@H]1CC[C@@H]2O [testosterone, reference compound]
- expression of LHCGR exon 11 (human kidney tissue; three hours ex vivo culture, 5 out of 5 below detection vs vehicle 3 out of 10): suppressed

Molecule: CC(=O)N[C@H](Cc1ccc2ccccc2c1)C(=O)N[C@H](Cc1ccc(Cl)cc1)C(=O)N[C@H](Cc1cccnc1)C(=O)N[C@@H](CO)C(=O)N[C@@H](Cc1ccc(O)cc1)C(=O)N[C@H](CCCNC(N)=O)C(=O)N[C@@H](CC(C)C)C(=O)N[C@@H](CCCNC(=N)N)C(=O)N1CCC[C@H]1C(=O)N[C@H](C)C(N)=O [GnRH antagonist, Cetrorelix, reference compound] (Ac-[d2Nal][dPhe(4-Cl)][d3Pal]SY[dCit]LRP[dA]-NH2)
- visceral fat mass ([1]; 10 days): suppressed
- Body weight compared with vehicle [1]: lower
- kidney weight compared with vehicle (IgG2b) [2]: slightly lower
- calcium excretion [2]: suppressed calcium excretion

B1: PTH: parathyroid hormone, added to kidney tissue culture media at 0.01 pg/mL (protein, UniProt P01270 32-115, looked up)
Parathyroid hormone: SVSEIQLMHNLGKHLNSMERVEWLRKKLQDVHNFVALGAPLAPRDAGSQRPRKKEDNVLVESHEKSLGEADKADVNVLTKAKSQ
modifications: Parathyroid hormone
notes: parathyroid hormone, added to kidney tissue culture media at 0.01 pg/mL
- TRPV5 expression (human kidney tissue; after 24 hours): significantly increased

B2: LH-β ab: Monoclonal mouse antibody (IgG2B; Kappa) targeting mouse LH beta; variable light chain SEQ ID NO: 5, heavy chain SEQ ID NO: 9 (antibody)
heavy: MEWRIFLFILSGTAGVHSQVQLQQSGPELVKPGTSLKLSCKASGYTFTDYVLTWVKQRTGQGLEWIGEIYPGSGSTSYNEKFRGKATLTADKSSNTAYMQLSSLTSEDSAVYFCAHLYYADYDFSYWGQGTLVTVSAAKTTPPSVYPLAPGCGDTTGSSVTLGCLVKGYFPESVTVTWNSGSLSSSVHTFPALLQSGLYTMSSSVTVPSSTWPSQTVTCSVAHPASSTTVDKKLE
light: MKLPVRLLVLMFWIPVSSSDVLMTQIPLSLVVSLGDQASISCRSSQNIVQSNGNTYLEWYLQKPGQSPKLLIYKVSNRFSGVPDRFSGSGSGTDFTLKISRVEAEDLGVYYCFQGSHVPLTFGAGTKLELKRADAAPTVSIFPPSSEQLTSGGASVVCFLNNFYPKDINVKWKIDGSERQNGVLNSWTDQDSKDSTYSMSST
- subcutaneous fat mass ([1]; 10 days): suppressed
- thyroid mass ([1]; 10 days): lowered
- visceral fat mass ([1]; 10 days): suppressed
- Body weight compared with vehicle [1]: lower
- increase of core temperature relative to baseline ([1]; day 5 and 10): 8%
- change in body weight versus vehicle ([1]; most pronounced in the first 5 days): effective in suppressing the effect of menopause (gonadectomy) on weight induction
- kidney weight compared with vehicle (IgG2b) [2]: slightly lower
- calcium excretion [2]: suppressed calcium excretion
- calcium excretion suppressed ([2]; high dosage, female mice): 70%
- calcium excretion (C57BL/6JRj male mice; all concentrations): reduced calcium excretion
- kidney weight compared with vehicle (IgG2b) (C57BL/6JRj male mice; day 10): slightly lower

Reference: patent US20260183363A1, “INHIBITION OF LUTEINIZING HORMONE (LH) ACTION AS TREATMENT OF PERIMENOPAUSAL AND POSTMENOPAUSAL SYMPTOMS AND COMPLICATIONS” (RIGSHOSPITALET, priority 2022, published 2026)
